Reference: patent publication US20070298997A1, “Compounds useful in treating diabetic microvascular complications and age-related macular degeneration” (priority 2003, published 2007)
Where two headings read alike, the source gives them in different places.

How the values were obtained:
[1] = test system: retinal neovascularization; type: in vivo, Brown Norway rats; conditions: for pre-retinal vascular cells: P<0.01
Method: Retinal neovascularization was induced in Brown Norway rats by exposure of newborn rats to hyperoxia as described previously (Gao et al., 2001). Kallistatin was injected intravitreally at P12, and the control eyes received the same volume of PBS. Rats were kept under normoxia for another 5 days, and retinal neovascularization was examined by fluorescein angiography (P17). The control eyes (PBS-injected) developed typical retinal neo-vascularization, including neovascular tufts, microaneurysms, enlarged non-perfusion regions and vascular leakage (FIG. 5a).
(§1) Induction of retinal neovascularization and intravitreal injection of kallistatin: Retinal neovascularization was induced as described by Smith et al. (Smith et al., 1994) with some modifications. Briefly, newborn pigmented Brown Norway rats at postnatal day 7 (P7) were exposed to hyperoxia (75% O2) for 5 days and then normoxia. Animals were anesthetized, and kallistatin was injected into the vitreous of the right eye through the pars plana using a glass capillary. The left eye received the same volume of PBS as the control. After injection, the animals were kept in normoxia for another 5 days for further analyses.
Retinal angiography with high molecular weight fluorescein and quantification of neovascularization: Retinal angiography was as described by Smith et al. (Smith et al., 1994). Briefly, rats were anesthetized and perfused with fluorescein via intra-ventricle injection of 50 mg/ml of high molecular weight (2×10^6) fluorescein isothiocyanate-dextran (Sigma, St. Louis, Mo.). The animals were immediately sacrificed, and the eyes were enucleated and fixed in 4% paraformaldehyde for 10 min. The retina was dissected free of the lens and vitreous and incubated in 4% paraformaldehyde for 3 h. The retina was cut and flat-mounted on a gelatin-coated slide. The vasculature was then examined under a fluorescent microscope (Axioplan2 Imaging, Zeiss).
Retinal neovascularization was quantified by counting pre-retinal vascular cells as previously described (Zhang et al., 2001). The average number of pre-retinal vascular nuclei was compared to the PBS control group by Student's t test.

[2] = test system: RCEC; test: [3H] thymidine incorporation assay; type: cell-based, bovine; conditions: 5 to 160 nM
Method: [^3H] thymidine incorporation assay: RCEC were seeded in 24-well plates in 1:1 DMEM +F-12 nutrient mixture plus 10% FBS and cultured in a CO2 incubator to reach 60-70% confluency. The cells were washed 3 times with PBS and the growth medium replaced by a medium containing 1% FBS and different concentrations of kallistatin. After 24 h culture, [^3H] thymidine was added to the medium (2 μCi/well) and incubated with the cells at 37° C. for 12 h. Free [^3H] thymidine was removed by 3 washes with PBS, and a solution of 6% TCA was added to the wells. The TCA solution was removed, and the wells were washed once with PBS. The remaining material was solubilized with 200 μl of 1 M NaOH (Smith et al., 1999). Incorporated [^3H] thymidine was measured with a microplate scintillation counter (Packard Instrument Company, Meriden, Conn.).

[3] = test system: Retinal capillary endothelial cells (RCEC); test: Quantification of viable cells by MTT assay, RCEC; type: cell-based, bovine
Method: FIG. 2 illustrates the specific inhibition of endothelial cell proliferation by recombinant kallistatin. RCEC were treated with recombinant kallistatin at concentrations of 5,10, 20, 40, 80 and 160 nM for 72 h. Viable cells were quantified by MTT assay. […] This effect appeared to be kallistatin concentration-dependent, with an apparent IC50 of 50 nM (FIG. 2) which is similar to that of K5, a known angiogenic inhibitor (Zhang et al., 2001).
FIG. 7 illustrates the effects of B1 and B2 kinin receptor antagonists on RCEC. In order to test whether the anti-angiogenic activity of kallistatin is via reducing kinin production by inhibiting kallikrein activity, RCEC were treated with 5 μM des-Arg^9-[Leu^8]-bradykinin, a specific antagonist of the B1 kinin receptor or Hoe-140, a specific B2 kinin receptor antagonist, in the presence or absence of 40 nM kallistatin for 48 h, and viable cells were quantified by MTT assay.
Quantification of viable cells: Cells were plated in 12-well plates in triplicate and cultured in the growth medium until they reached 60-70% of confluency. The culture medium was replaced with a medium containing 1% fetal bovine serum (FBS). Recombinant kallistatin was added to the cover medium to various concentrations and incubated with the cells for 72 h. The viable cells were quantified by the MTT (3-[4,5-dimethylthiazol-2-yl]-2,5-dephenyl tetrazolium bromid, Roche, Mannheim, Germany) assay following a protocol recommended by the manufacturer. The effect of kallistatin on viable cell number was analyzed using Student's t test.

[4] = test system: VEGF binding to RCEC; test: VEGF binding assay (125I-VEGF); set-up: species or system bovine; conditions: 1 h, 0.5, 5 and 50 μg competitor (VEGF:kallistatin 1:5, 1:50, 1:500)
Method: FIG. 8 illustrates inhibition of VEGF binding to RCEC by kallistatin. […] To determine the competition between kallistatin and VEGF in RCEC binding, ^125I-VEGF was added to RCEC together with 0.5, 5 and 50 μg of unlabeled kallistatin to result in VEGF:kallistatin molar ratios of 1:5, 1:50 and 1:500, respectively.
VEGF binding assay: VEGF (PeproTech, Inc., Rocky Hill, N.J.) was labeled with 125I using the Chloromine T ^125I Labeling Kit (ICN Pharmaceuticals, Inc. Costa Mesa, Calif.) following a protocol recommended by the manufacturer. For the binding assay, RCEC were seeded in 12-well plates and cultured until 80% confluency was reached. The culture medium was replaced with serum-free medium. ^125I-VEGF was added to the medium, 2.5×10^5 CPM/well with and without different concentrations of kallistatin or recombinant plasminogen kringle 5 (K5) and incubated with the cells for 1 h. The medium was removed and cells washed three times with PBS. The cells were then lysed by the addition of 0.35 ml 10% SDS. The cell lysates were collected, and the 125I-VEGF bound to RCEC was quantified by a gamma counter.

[5] = test system: VEGF; test: Retinal VEGF levels in OIR rats by Western blot; type: in vivo, Brown Norway rats; conditions: intravitreal injection of 25 μg, P<0.01
Method: The effect of kallistatin on VEGF expression was also examined in vivo. After intravitreal injection of 25 μg kallistatin, VEGF levels were determined in the retina with OIR.
as §1
Western blot analysis: One hundred micrograms of total protein were used for Western blot analysis of VEGF using an ECL detection kit (Amersham International plc, Piscataway, N.J.) (Gao et al., 2001). The same membrane was stripped and re-blotted with an antibody specific to β-actin. VEGF levels were normalized by β-actin.

[6] = test system: retina; test: Retinal toxicity after intravitreal injection (histology of retinal sections); type: in vivo, Brown Norway rats
Method: as §1

B1: kallistatin: Recombinant His-tagged rat kallistatin (serpin, SEQ ID NO:1) expressed in E. coli and affinity-purified (protein, listed as Homo sapiens)
chain: DGILGRDTLPHEDQGKGRQLHSLTLASINTDFTLSLYKKLALRNPDKNVVFSPLSISAALAILSLGAKDSTMEEILEVLKFNLTEITEEEIHHQGFGHLLQRLSQPEDQAEINTGSALFIDKEQPILSEFQEKTRALYQAEAFVADFKQCNEAKKFINDYVSNQTQGKIAELFSELDERTSMVLVNYLLFKGKWKVPFNPNDTFESEFYLDEKRSVKVPMMKIKDLTTPYIRDEELSCSVLELKYTGNASALFILPDQGKMQQVESSLQPETLKKWKDSLRPRIISELRMPKFSISTDYNLEEVLPELGIRKIFSQQADLSRITGTKNLHVSQVVHKAVLDVDETGTEGAAATAVTAALKSLPQTIPPLNFNRPFMLVITDNNGQSVFFMGKVTNPM
modifications: His tag
- pre-retinal vascular cells ([1]; OIR rats, 12.5 μg per eye intravitreal): significantly decreased pre-retinal vascular cells
- pre-retinal vascular cells ([1]; OIR rats, 25 μg per eye intravitreal): significantly decreased pre-retinal vascular cells
- retinal vasculature by fluorescein angiography ([1]; OIR rats, intravitreal injection at P12, examined P17): apparent improvement in retinal vasculature
- retinal vasculature by fluorescein angiography, normal rats ([1]; rat, in vivo): did not result in any apparent difference in retinal vasculature
- thymidine incorporation (cell proliferation rate) [2]: inhibited thymidine incorporation in RCEC in a concentration-dependent manner
- viable cells vs control ([3]; 5 nM, 72 h, P<0.05): significantly fewer viable cells than the control cells
- viable cell numbers, % of the control ([3]; 40 nM, 48 h, P<0.01): approximately 50 % of the control
- IC50 ([3]; 72 h, read-out: apparent IC50, viable cells): 50 nM
- VEGF bound to RCEC [4]: decreased in a kallistatin concentration-dependent manner
- retinal VEGF levels, % of the control [5]: ~35 % of the control
- inflammatory response or toxicity to retinal tissues and normal vasculature ([6]; intravitreal injection): does not cause any detectable inflammatory response or toxicity
- histological evidence of retinal toxicity ([6]; retinal sections after intravitreal injection): No apparent histological evidence of retinal toxicity
